Test results from PMC7360973, “Feedback regulation of heat shock factor 1 (Hsf1) activity by Hsp70‐mediated trimer unzipping and dissociation from DNA” (The EMBO Journal, 2020).
Ends that are not written are not given here.

How the values were obtained:
Human Hsc70 (HSPA8) [1] = biological target: T1, Human Hsc70 (HSPA8) (human, UniProt P11142 1-646); experiment: fluorescence polarisation; fluorescein-labelled peptide at 1 μM titrated with Hsc70 (0–60 μM), 2 h at 25°C, HKM150 buffer (25 mM HEPES/KOH pH 7.6, 150 mM KCl, 5 mM MgCl2); Hsc70 concentrated in the presence of 1 mM ATP; quadratic fit; conditions: both partners purified
T1 construct: Hsc70 (HSPA8), constitutive Hsp70, human, wild type; In the functional rows from MEF and HeLa cells the Hsc70/Hsp70 is the cells' own; this molecule stands for it there; source: E. coli BL21 (DE3) Rosetta, purified (Ni-IDA, Ulp1 cleavage, reverse Ni-IDA)

[2] = biological target: the molecule itself; experiment: SEC + native gel or EMSA; trimer-to-monomer ratio of freshly purified Hsf1 in the absence of heat shock, by gel filtration (Superdex 200) and BN-PAGE
Human Hsc70 (HSPA8) [3] = biological target: T1, Human Hsc70 (HSPA8); experiment: HDX-MS; 6 μM Hsf1 (monomer or trimer) pre-incubated 30 min at 25°C with 12 μM Hsc70 or 9 μM DnaJB1 in 25 mM HEPES/NaOH pH 7.5, 150 mM NaCl, 10% glycerol, 2 mM DTT; diluted 10-fold in D2O buffer, 30 s at 25°C; online pepsin digestion; conditions: both partners purified
[4] = biological target: the molecule itself; experiment: native gel or EMSA; blue-native PAGE of lysates (15 μg total protein) of transfected HSF1−/− MEFs, immunoblot with Hsf1 antiserum
[5] = biological target: the molecule itself; experiment: native gel or EMSA; blue-native PAGE (8% gel, on ice) of purified Hsf1 wild type or variants, also after 10 min at 4–42°C (5 μM protein); Coomassie stain or immunoblot with Hsf1 antiserum

T1 sequence (P11142 whole entry): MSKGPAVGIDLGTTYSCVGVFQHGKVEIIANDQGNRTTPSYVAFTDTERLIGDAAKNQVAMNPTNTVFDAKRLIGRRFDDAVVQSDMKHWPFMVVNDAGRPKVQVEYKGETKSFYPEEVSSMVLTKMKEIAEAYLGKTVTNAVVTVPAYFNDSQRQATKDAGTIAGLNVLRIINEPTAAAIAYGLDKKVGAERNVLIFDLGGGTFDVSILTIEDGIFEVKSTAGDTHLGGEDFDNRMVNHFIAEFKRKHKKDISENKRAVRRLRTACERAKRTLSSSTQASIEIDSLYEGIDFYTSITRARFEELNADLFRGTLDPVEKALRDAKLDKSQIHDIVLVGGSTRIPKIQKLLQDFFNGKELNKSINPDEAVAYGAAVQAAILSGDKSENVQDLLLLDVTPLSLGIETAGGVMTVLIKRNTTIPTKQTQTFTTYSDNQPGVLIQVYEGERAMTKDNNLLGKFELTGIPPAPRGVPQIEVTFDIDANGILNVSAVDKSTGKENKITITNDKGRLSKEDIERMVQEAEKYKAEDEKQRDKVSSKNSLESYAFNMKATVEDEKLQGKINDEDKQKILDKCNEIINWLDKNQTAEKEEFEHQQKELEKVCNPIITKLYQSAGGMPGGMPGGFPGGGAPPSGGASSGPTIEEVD

B1: Hsf1 peptide N200‐K208‐C (peptide)
peptide: NRILGVKRKC(fluorescein‑5‑maleimide)
notes: Hsf1, human, residues 200-208; C-terminal cysteine for labelling, not part of the Hsf1 stretch
- binding result (Human Hsc70 (HSPA8) [1]): binds

B2: Hsf1‐I190S,I194S (natural protein, human, UniProt Q00613 1-529, looked up)
chain: MDLPVGPGAAGPSNVPAFLTKLWTLVSDPDTDALICWSPSGNSFHVFDQGQFAKEVLPKYFKHNNMASFVRQLNMYGFRKVVHIEQGGLVKPERDDTEFQHPCFLRGQEQLLENIKRKVTSVSTLKSEDIKIRQDSVTKLLTDVQLMKGKQECMDSKLLAMKHENEALWREVASLRQKHAQQQKVVNKLSQFLSSLVQSNRILGVKRKIPLMLNDSGSAHSMPKYSRQFSLEHVHGSGPYSAPSPAYSSSSLYAPDAVASSGPIISDITELAPASPMASPGGSIDERPLSSSPLVRVKEEPPSPPQSPRVEEASPGRPSSVDTLLSPTALIDSILRESEPAPASVTALTDARGHTDTEGRPPSPPPTSTPEKCLSVACLDKNELSDHLDAMDSNLDNLQTMLSSHGFSVDTSALLDLFSPSVTVPDMSLPDLDSSLASIQELLSPQEPPRPPEAENSSPDSGKQLVHYTAQPLFLLDPGSVDTGSNDLPVLFELGEGSYFSEGDGFAEDPTISLLTGSEPPKAKDPTVS
notes: Hsf1, human, with I190S and I194S in HR-B; source: purified (gel filtration)
- stoichiometry N [2]: 3

B3: Human heat shock transcription factor 1 (Hsf1), wild type (natural protein, UniProt Q00613 1-529, looked up)
chain: MDLPVGPGAAGPSNVPAFLTKLWTLVSDPDTDALICWSPSGNSFHVFDQGQFAKEVLPKYFKHNNMASFVRQLNMYGFRKVVHIEQGGLVKPERDDTEFQHPCFLRGQEQLLENIKRKVTSVSTLKSEDIKIRQDSVTKLLTDVQLMKGKQECMDSKLLAMKHENEALWREVASLRQKHAQQQKVVNKLIQFLISLVQSNRILGVKRKIPLMLNDSGSAHSMPKYSRQFSLEHVHGSGPYSAPSPAYSSSSLYAPDAVASSGPIISDITELAPASPMASPGGSIDERPLSSSPLVRVKEEPPSPPQSPRVEEASPGRPSSVDTLLSPTALIDSILRESEPAPASVTALTDARGHTDTEGRPPSPPPTSTPEKCLSVACLDKNELSDHLDAMDSNLDNLQTMLSSHGFSVDTSALLDLFSPSVTVPDMSLPDLDSSLASIQELLSPQEPPRPPEAENSSPDSGKQLVHYTAQPLFLLDPGSVDTGSNDLPVLFELGEGSYFSEGDGFAEDPTISLLTGSEPPKAKDPTVS
notes: heat shock transcription factor 1 (Hsf1), human, wild type; Purified both as a monomer and as a trimer; One molecule is used for both states; the assay's format tells which was used; also called Hsf1wt; wt; source: E. coli BL21 (DE3) Rosetta, purified (Ni-IDA, Ulp1 cleavage, Superdex 200); monomeric and trimeric fractions collected separately; not shown: His6-SUMO, N-terminal, cleaved
- binding result (Human Hsc70 (HSPA8) [3]): binds

B4: Hsf1‐I202S,L203S,V205S expressed from pIRES‐HSF1‐I202S,L203S,V205S_hrGFP in cells (natural protein, human, UniProt Q00613 1-529, looked up)
chain: MDLPVGPGAAGPSNVPAFLTKLWTLVSDPDTDALICWSPSGNSFHVFDQGQFAKEVLPKYFKHNNMASFVRQLNMYGFRKVVHIEQGGLVKPERDDTEFQHPCFLRGQEQLLENIKRKVTSVSTLKSEDIKIRQDSVTKLLTDVQLMKGKQECMDSKLLAMKHENEALWREVASLRQKHAQQQKVVNKLIQFLISLVQSNRSSGSKRKIPLMLNDSGSAHSMPKYSRQFSLEHVHGSGPYSAPSPAYSSSSLYAPDAVASSGPIISDITELAPASPMASPGGSIDERPLSSSPLVRVKEEPPSPPQSPRVEEASPGRPSSVDTLLSPTALIDSILRESEPAPASVTALTDARGHTDTEGRPPSPPPTSTPEKCLSVACLDKNELSDHLDAMDSNLDNLQTMLSSHGFSVDTSALLDLFSPSVTVPDMSLPDLDSSLASIQELLSPQEPPRPPEAENSSPDSGKQLVHYTAQPLFLLDPGSVDTGSNDLPVLFELGEGSYFSEGDGFAEDPTISLLTGSEPPKAKDPTVS
notes: Hsf1, human, with I202S, L203S, V205S; source: HSF1−/− MEF or HeLa, transiently transfected, in lysate or in cells
- stoichiometry N [4]: 3

B5: Hsf1 peptide Y468‐S480‐C (peptide)
peptide: YTAQPLFLLDPGSC(fluorescein‑5‑maleimide)
notes: Hsf1, human, residues 468-480 (in the TAD); C-terminal cysteine for labelling, not part of the Hsf1 stretch
- binding result (Human Hsc70 (HSPA8) [1]): binds

B6: Hsf1∆(202–213) (natural protein, human, UniProt Q00613 1-529, looked up)
chain: MDLPVGPGAAGPSNVPAFLTKLWTLVSDPDTDALICWSPSGNSFHVFDQGQFAKEVLPKYFKHNNMASFVRQLNMYGFRKVVHIEQGGLVKPERDDTEFQHPCFLRGQEQLLENIKRKVTSVSTLKSEDIKIRQDSVTKLLTDVQLMKGKQECMDSKLLAMKHENEALWREVASLRQKHAQQQKVVNKLIQFLISLVQSNRNDSGSAHSMPKYSRQFSLEHVHGSGPYSAPSPAYSSSSLYAPDAVASSGPIISDITELAPASPMASPGGSIDERPLSSSPLVRVKEEPPSPPQSPRVEEASPGRPSSVDTLLSPTALIDSILRESEPAPASVTALTDARGHTDTEGRPPSPPPTSTPEKCLSVACLDKNELSDHLDAMDSNLDNLQTMLSSHGFSVDTSALLDLFSPSVTVPDMSLPDLDSSLASIQELLSPQEPPRPPEAENSSPDSGKQLVHYTAQPLFLLDPGSVDTGSNDLPVLFELGEGSYFSEGDGFAEDPTISLLTGSEPPKAKDPTVS
notes: source: E. coli BL21 (DE3) Rosetta, purified (Ni-IDA, Ulp1 cleavage, Superdex 200); not shown: His6-SUMO, N-terminal, cleaved
- binding result [5]: binds

B7: Hsf1 peptide S461‐Q471‐C (peptide)
peptide: SGKQLVHYTAQC(fluorescein‑5‑maleimide)
notes: Hsf1, human, residues 461-471 (in the TAD); C-terminal cysteine for labelling, not part of the Hsf1 stretch; also called residues 461–471
- Kd (Human Hsc70 (HSPA8) [1]): 5 to 30 µM

B8: Hsf1 peptide G204‐N214‐C (peptide)
peptide: GVKRKIPLMLNC(fluorescein‑5‑maleimide)
notes: Hsf1, human, residues 204-214; C-terminal cysteine for labelling, not part of the Hsf1 stretch
- binding result (Human Hsc70 (HSPA8) [1]): binds
